This note sets out measurements from patent EP4480965A1, “TRANSFERRIN RECEPTOR-BINDING MOLECULES, CONJUGATES THEREOF AND THEIR USES TO PREVENT OR TREAT CNS DISEASES” (Vect-Horus, priority 2023, dated 2024).

This test concerns murine SOD1 mRNA. The test is described as follows: CNS knock-down of SOD1 mRNA after single ICV administration (RT-qPCR). The format is in vivo, C57Bl/6 mice. As to conditions: seven days. The protocol: VHH-siSOD 1m conjugates were assessed for their potential to mediate murine SOD1 mRNA knock-down in the brain and spinal cord following intracerebroventicular (ICV) administration in wild-type C57Bl/6 mice. Wild-type C57Bl/6 mice (4 per group) were injected a single ICV dose (right lateral ventricle, 5-10 µL at 0.75 µL/min) of 100 µg (siRNA molar equivalent) of PBS vehicle (control), unconjugated siSOD1m-5'VP or the indicated VHH-siSOD1m-5'VP conjugates. Seven days after injection, tissue samples including total brain (right hemisphere), brain regions (from the left hemisphere), spinal cord and the liver were withdrawn, snap-frozen in 10 vol. ofNucleoProtect RNA stabilization reagent (Macherey-Nagel) and stored at -20°C. Frozen tissue samples were homogenized in QUIAzol lysis reagent using a Precellys Evolution tissue homogenizer equipped with a Cryolys Evolution cooling system (Bertin Instruments). Total RNA was extracted from tissue homogenates using the rNeasy 96 QIAcube HT Kit (QIAGEN) in a QIAcube HT system. RNA samples were analyzed and dosed using a Fragment Analyzer RNA kit in a Fragment Analyzer system (Agilent). Relative RNA expression levels were quantified by RT-qPCR using the TaqMan™ Fast Universal PCR Master Mix (2X) no AmpErase™ UNG kit (Applied Biosystems) and commercially available TaqMan™ probes for murine SOD1 and RpL13 genes (Applied Biosystems). Expression data were analyzed using the ΔΔCq method normalized to the expression of the reference RpL13 gene, based on raw quantification cycle (Cq) values (Bustin et al.). The results are expressed as means ± standard error of the mean (SEM) and are presented as mRNA levels relative to the control animals injected with PBS.
Biodistribution of VHH-siRNA conjugates and CNS knock-down of the target SOD1 mRNAVHH-siSODlm conjugates were evaluated using in situ hybridization methods (ISH) on brain and spinal cord samples following single ICV administration in wild-type mice. […]

B1: C5-siSOD1m-5'VP: TfR-binding VHH-siRNA conjugate wherein VHH is C5 (conjugate)
VHH: EVQLVESGGGVVQPGGSLKLSCVASGTDFSINFIRWYRQAPGKQREFVAGFTATGNTNYADSMKGRFTISRDNTKNAVYLQIDSLKPEDTAVYYCYMLDKWGQGTQVTVSSAAAEQKLISEEDLNGAAHHHHHHGS
Take B1: the “SOD1 mRNA knock-down (KD) in brain and spinal cord” value (single ICV dose 100 µg (siRNA molar equivalent)) is reported as 80-90%. Where the note is “single ICV dose 100 µg”, the “SOD1 mRNA KD in brain regions of the left hemisphere” value is on record as 60-90% and the “downregulation of SOD1 mRNA in all regions tested of the brain ipsilateral (right) hemisphere” value is 70-90%.
